Experimental data taken from PMC10875832 (2024).

What was measured:
soluble CAR D12 = soluble CAR D12 (chicken); test: SPR
soluble CAR D1 domain = soluble CAR D1 domain (chicken); test: SPR

B1: CELO fiber1 knob (domain or fragment)
chain: GSSTPEVATYHCGDNLLESYDIFASLPNTNAAKVAAYCRLAAAGGVVSGTIQVTSYAGRWPKVGNSVTDGIKFAIVVSPPMDKDPRSNLSQWLGATVFPAGATTALFSPNPYGSLNTITTLPSIASDWYVPESNLVTYTKIHFKPTGSQQLQLASGELVVAAAKSPVQTTKYELIYLGFTLKQNSSGTNFFDPNASSDLSFLTPPIPFTYLGYYQ
Kd (soluble CAR D12): 115 nM | Kd (soluble CAR D1 domain): 420 nM
